Test results: the RNAGym collection of RNA variant scans (doi:10.7554/elife.80360)

B1: HDV Ribozyme (parent)
chain: GGCCGGCAUGGUCCCAGCCUCCUCGCUGGCGCCGGCUGGGCAACAUUCCGAGGGGACCGUCCCCUCGGUAAUGGCGAAUGGGACCCA

Variants of: B1
Assay: self-cleavage, relative activity (ratio to wild type); higher = more cleavage; co-transcriptional

Variant	self-cleavage
GGCCGGCAUGGUCCCAGCCUCCUCGCUGGCGCCAGCUGGGCAACAUUCCGAGGGGACCGUCCCCUCGGUAAUGGCGAAGGGGACCCA	0.0875
GGCCGGCAUGGUCCCAGCCUCCUCGCUGGCGCCAGCUGGGCAACAUUCCGAGGGGACCGUCCCCUCGGUAAUGGCGAACGGGACCCA	0.0773
GGCCGGCAUGGUCCCAGCCUCCUCGCUGGCGCCAGCUGGGCAACAUUCCGAGGGGACCGUCCCCUCGGUAAUGGCGAAAGGGACCCA	0.0755
GGCCGGCAUGGUCCCAGCCUCCUCGCUGGCGCCAGCUGGGCAACAUUCCGAGGGGACCGUCCCCUGGGUAAUGGCGAAUGGGACCCA	0.138
GGCCGGCAUGGUCCCAGCCUCCUCGCUGGCGCCAGCUGGGCAACAUUCCGAGGGGACCGUCCCCUCGGUAAUGGCGAAUUGGACCCA	0.0903
GGCCGGCAUGGUCCCAGCCUCCUCGCUGGCGCCAGCUGGGCAACAUUCCGAGGGGACCGUCCCCUCGGUAAUGGCGAAUCGGACCCA	0.0819
GGCCGGCAUGGUCCCAGCCUCCUCGCUGGCGCCCGCUGGGCAACAUUCCGAGGGGACCGUCCCCUCGGUGAUGGCGAAUGGGACCCA	0.0898
GGCCGGCAUGGUCCCAGCCUCCUCGCUGGCGCCAGCUUGGCAACAUUCCGAGGGGACCGUCCCCUCGGUAAUGGCGAAUGGGACCCA	0.138
GGCCGGCAUGGUCCCAGCCUCCUCGCUGGCGCCCGCUGGGCAACAUUCCGAGGGGACCGUCCCCUCGGUAAUGGCGGAUGGGACCCA	0.161
GGCCGGCAUGGUCCCAGCCUCCUCGCUGGCGCCCGCUGGGCAACAUUCCGAGGGGACCGUCCCCUCGGUAAUGGCGCAUGGGACCCA	0.17
GGCCGGCAUGGUCCCAGCCUCCUCGCUGGCGCCCGCUGGGCUACAUUCCGAGGGGACCGUCCCCUCGGUAAUGGCGAAUGGGACCCA	0.262
GGCCGGCAUGGUCCCAGCCUCCUCGCUGGCGCCCGCUGGGCGACAUUCCGAGGGGACCGUCCCCUCGGUAAUGGCGAAUGGGACCCA	0.0554
GGCCGGCAUGGUCCCAGCCUCCUCGCUGGCGCCCGCUGGGCAACAUUCCGCGGGGACCGUCCCCUCGGUAAUGGCGAAUGGGACCCA	0.107
GGCCGGCAUGGUCCCAGCCUCCUCGCUGGCGCCCGCUGGGCAACAUUCCGGGGGGACCGUCCCCUCGGUAAUGGCGAAUGGGACCCA	0.346
GGCCGGCAUGGUCCCAGCCUCCUCGCUGGCGCCCGCUGGGCAACAUUCCGUGGGGACCGUCCCCUCGGUAAUGGCGAAUGGGACCCA	0.141
GGCCGGCAUGGUCCCAGCCUCCUCGCUGGCGCCAGCUGGGCAACAUUCCGAGGGGACCGUCCCCUCGGUAAUGGCGAAUGGGACUCA	0.163

Variant	self-cleavage
GGCCGGCAUGGUCCCAGCCUCCUCGCUGGCGCCAGCUGGGCAACAUUCCGAGGGGACCGUCCCCUCGGUAAUGGCGAAUGGGACACA	0.199
GGCCGGCAUGGUCCCAGCCUCCUCGCUGGCGCCAGCUGGGCAACAUCCCGAGGGGACCGUCCCCUCGGUAAUGGCGAAUGGGACCCA	0
GGCCGGCAUGGUCCCAGCCUCCUCGCUGGCGCCAGCGGGGCAACAUUCCGAGGGGACCGUCCCCUCGGUAAUGGCGAAUGGGACCCA	0.219
GGCCGGCAUGGUCCCAGCCUCCUCGCUGGCGCCAGCUGGGCAACAUUCCGAGGGGACCGUCCCCUCGGUAAUGGCGAAUGUGACCCA	0.07
GGCCGGCAUGGUCCCAGCCUCCUCGCUGGCGCCAGCUGGGCAACAUUCCGAGGGGACCGUCCCCUCGGUAAUGGGGAAUGGGACCCA	0.203
GGCCGGCAUGGUCCCAGCCUCCUCGCUGGCGCCAGCUGAGCAACAUUCCGAGGGGACCGUCCCCUCGGUAAUGGCGAAUGGGACCCA	0.198
GGCCGGCAUGGUCCCAGCCUCCUCGCUGGCGCCAGCUGGGCAACAUUCCUAGGGGACCGUCCCCUCGGUAAUGGCGAAUGGGACCCA	0.187
GGCCGGCAUGGUCCCAGCCUCCUCGCUGGCGCCAGCUGGGCAACAUUCCGAGGGGACCGUCCCCUCGGUAACGGCGAAUGGGACCCA	0.0692
GGCCGGCAUGGUCCCAGCCUCCUCGCUGGCGCCAGCUGGGCAACAUUCCGAGGGGACCGUCCCCUCGGUAAGGGCGAAUGGGACCCA	0.0326
GGCCGGCAUGGUCCCAGCCUCCUCGCUGGCGCCAGCUGGGCAACAUUCCGAGGGGACCGUCCCCUCGUUAAUGGCGAAUGGGACCCA	0.171
GGCCGGCAUGGUCCCAGCCUCCUCGCUGGCGCCAGCUGGGCAACAUUCCGAGGGGACCGUCCCCUCGCUAAUGGCGAAUGGGACCCA	0.0978
GGCCGGCAUGGUCCCAGCCUCCUCGCUGGCGCCAGCUGGGCAACAUUCCGAGGGGACCGUCCCCUCGAUAAUGGCGAAUGGGACCCA	0.144
GGCCGGCAUGGUCCCAGCCUCCUCGCUGGCGCCAGCUGGGCAACAAUCCGAGGGGACCGUCCCCUCGGUAAUGGCGAAUGGGACCCA	0.121
GGCCGGCAUGGUCCCAGCCUCCUCGCUGGCGCCAGCUGGGCAACAUUCCGAGGGGACCGUCCCCUCGGUAAUGGCUAAUGGGACCCA	0.269
GGCCGGCAUGGUCCCAGCCUCCUCGCUGGCGCCAGCUGGGCAACAUUCCGAGGGGACCGUCCCCUCGGUAAUGGCAAAUGGGACCCA	0.257
GGCCGGCAUGGUCCCAGCCUCCUCGCUGGCGCCAUCUGGGCAACAUUCCGAGGGGACCGUCCCCUCGGUAAUGGCGAAUGGGACCCA	0.113
